The results in this text go back to US5605821, “Expression control sequences of the P-selectin gene” (Board of Regents of the University of Oklahoma).

Data set [1] addresses T1, NFKB1 (p50) homodimer (UniProt P19838 P19838:1-433). Put plainly: EMSA. The note with it: chain copies: 2 (stated).
Data set [2] deals with T2, NFKB2 (p52) homodimer (UniProt Q00653 Q00653:1-454).
T2 sequence: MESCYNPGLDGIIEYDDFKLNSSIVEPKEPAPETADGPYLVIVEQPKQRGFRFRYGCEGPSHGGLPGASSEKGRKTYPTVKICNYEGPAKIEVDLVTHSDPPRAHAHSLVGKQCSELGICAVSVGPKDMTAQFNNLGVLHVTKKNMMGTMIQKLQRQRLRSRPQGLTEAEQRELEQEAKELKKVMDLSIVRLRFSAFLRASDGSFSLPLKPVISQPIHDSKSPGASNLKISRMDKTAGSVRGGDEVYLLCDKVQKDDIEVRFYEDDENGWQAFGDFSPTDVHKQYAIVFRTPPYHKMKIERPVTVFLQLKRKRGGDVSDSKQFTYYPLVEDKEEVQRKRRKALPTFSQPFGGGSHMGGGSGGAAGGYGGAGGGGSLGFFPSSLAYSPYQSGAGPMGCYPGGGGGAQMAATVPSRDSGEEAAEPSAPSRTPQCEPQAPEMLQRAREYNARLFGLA
Put plainly: EMSA. The note with it: chain copies: 2 (stated).

The target of another data set is Rel A homodimer (UniProt Q04206 Q04206:1-551). The experiment in a line: EMSA. Particulars: chain copies: 2 (stated); label: 32P.
Sequence of Rel A homodimer (Q04206 whole entry, one chain of several): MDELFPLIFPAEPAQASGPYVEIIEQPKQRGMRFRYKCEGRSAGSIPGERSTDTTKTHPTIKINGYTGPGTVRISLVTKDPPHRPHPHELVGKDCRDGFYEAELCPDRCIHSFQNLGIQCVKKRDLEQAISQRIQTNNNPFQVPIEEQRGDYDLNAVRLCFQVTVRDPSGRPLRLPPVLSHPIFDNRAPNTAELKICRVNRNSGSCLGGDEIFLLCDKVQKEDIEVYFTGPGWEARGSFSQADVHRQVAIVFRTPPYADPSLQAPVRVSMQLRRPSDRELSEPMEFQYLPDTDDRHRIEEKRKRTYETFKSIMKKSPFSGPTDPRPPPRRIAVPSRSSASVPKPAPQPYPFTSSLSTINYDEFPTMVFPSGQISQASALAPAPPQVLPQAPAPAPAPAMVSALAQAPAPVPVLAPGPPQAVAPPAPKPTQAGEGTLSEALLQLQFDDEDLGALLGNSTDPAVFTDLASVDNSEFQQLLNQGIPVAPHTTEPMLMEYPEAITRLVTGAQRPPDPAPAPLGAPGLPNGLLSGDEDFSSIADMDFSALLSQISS
Data set [3] deals with T1, NFKB1 (p50) homodimer. The experiment in a line: EMSA; labeled oligonucleotides bound. The note with it: chain copies: 2 (stated); label: 32P.
The target of data set [4] is T2, NFKB2 (p52) homodimer. Put plainly: EMSA; labeled oligonucleotides bound. The note with it: chain copies: 2 (stated); label: 32P.
The target in data set [5] is T1, NFKB1 (p50) homodimer. Put plainly: EMSA; methylation interference shows contacts to GGGG on both strands. The note with it: chain copies: 2 (stated); label: 32P.
Data set [6] deals with T2, NFKB2 (p52) homodimer. Described as above. Particulars: chain copies: 2 (stated); label: 32P.

T1 sequence (P19838 1-433, one chain of several): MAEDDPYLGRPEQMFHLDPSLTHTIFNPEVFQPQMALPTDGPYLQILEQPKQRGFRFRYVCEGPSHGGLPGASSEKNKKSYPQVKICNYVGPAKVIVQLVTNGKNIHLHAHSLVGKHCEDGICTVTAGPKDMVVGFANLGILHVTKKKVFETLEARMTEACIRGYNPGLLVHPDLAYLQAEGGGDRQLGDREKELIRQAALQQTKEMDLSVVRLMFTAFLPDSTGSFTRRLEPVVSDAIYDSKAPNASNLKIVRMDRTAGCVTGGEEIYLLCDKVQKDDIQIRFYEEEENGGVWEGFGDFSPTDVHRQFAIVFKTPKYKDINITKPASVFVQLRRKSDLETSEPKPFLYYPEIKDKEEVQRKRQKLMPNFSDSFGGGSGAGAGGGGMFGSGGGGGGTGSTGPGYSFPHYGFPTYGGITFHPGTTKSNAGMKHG

B1: P-selectin 4642-4664 ATAG mutant (dsDNA)
DNA 1: GGAAGGGGGTGAATAGTTGCCTC
DNA 2: GAGGCAACTATTCACCCCCTTCC
modifications: [none]
For B1, the binding result with NFKB1 (p50) homodimer [1] and with NFKB2 (p52) homodimer [2] was “no binding” each time.

B2: P-selectin 4632-4672 (dsDNA)
DNA 1: CATCTTCCATGGAAGGGGGTGACCCCTTGCCTCTTGGCAAC
DNA 2: GTTGCCAAGAGGCAAGGGGTCACCCCCTTCCATGGAAGATG
B2: the binding result with Rel A homodimer is listed as “no binding”; with NFKB1 (p50) homodimer [3], “binds”; in the data set with NFKB2 (p52) homodimer [4] it was “binds”.

B3: P-selectin 4642-4664 (dsDNA)
DNA 1: GGAAGGGGGTGACCCCTTGCCTC
DNA 2: GAGGCAAGGGGTCACCCCCTTCC
Consider B3, for which the binding result with Rel A homodimer is recorded as “no binding”; in the data set with NFKB1 (p50) homodimer [5], “binds”; with NFKB2 (p52) homodimer [6], “binds”.
